Laboratory results from paper doi:10.1101/2023.07.04.547698 (bioRxiv, 2023).

Experiments:
[1] = molecular target: T1, human tau fibrils (HT40, 2N4R) (Homo sapiens, UniProt P10636-8); experiment: flow cytometry on fibril-coated beads
[2] = molecular target: T1, human tau fibrils (HT40, 2N4R); experiment: flow cytometry on fibril-coated beads, competition with monomer
human 0N3R tau fibrils = human 0N3R tau fibrils (Homo sapiens, UniProt P10636-2); experiment: far-Western, overlay or dot blot
[3] = molecular target: human α-synuclein fibrils (Homo sapiens (Human)., UniProt P37840); experiment: flow cytometry on fibril-coated beads, competition with monomer

binding result [2]	binding result [3]	Binder	other results
–	–	ATA1 (scFv, V domains shown) VH: QVQLQQSGPGLLKPSETLSLTCVISGDSVSSNSATWNWIRQSPSRGLEWLGRTYFRSKWYNDYAVSVKSRITINPDTSKNQFSLQLNSATPEDTAVYYCARQMDEGVGFDFWGQGTLVTVSS VL: EIVLTQSPATLSLSPGERATLSCRASQSVSSYLAWYQQKPGQAPRLLIYDASNRATGIPARFSGSGSGTDFTLTISSLEPEDFAVYYCQQRSNWPPTFGQGTRLEIK	EC50 [1]: 6.3 nM
binds	–	ATA1.458.5 (scFv, V domains shown) VH: QVQLQQSGPGLLKPSETLSLTCVISGDSVSSNFVTWNWIRQSPSRGLEWLGRTYFRRKWYNDYAVSVKSRITINPDTSKNQFSLQLNSATPEDTAVYYCARQMDEGVGFDFWGQGTLVTVSS VL: EIVLTQSPATLSLSPGERATLSCRASQSVSSYLAWYQQKPGQAPRLLIYDASNRATGIPARFSGSGSGTDFTLTISSLEPEDFAVYYCQQRHSWPPTFGQGTRLEIK	–
–	–	ATA1.459.3 (scFv, V domains shown) VH: QVQLQQSGPGLLKPSETLSLTCVISGDSVSSNSVTWNWIRQSPSRGLEWLGRTYFRRRWYNDYAVSVKSRITINPDTSKNQFSLQLNSATPEDTAVYYCARQMDKGVGFDFWGQGTLVTVSS VL: EIVLTQSPATLSLSPGERATLSCRASQSVSSYLAWYQQKPGQAPRLLIYDASNRATGIPARFSGSGSGTDFTLTISSLEPEDFAVYYCQQRHNWPPTFGQGTRLEIK	binding result (human 0N3R tau fibrils): binds
binds	–	ATA1.458.3 (scFv, V domains shown) VH: QVQLQQSGPGLLKPSETLSLTCVISGDSVSTNDVTWNWIRQSPSRGLEWLGRTYFRRKWYNDYARSVKSRITINPDTSKNQFSLQLNSATPEDTAVYYCARQMDEGVGFDFWGQGTLVTVSS VL: EIVLTQSPATLSLSPGERATLSCRASQSVSSYLAWYQQKPGQAPRLLIYDASNRATGIPARFSGSGSGTDFTLTISSLEPEDFAVYYCQQRHNWPPTFGQGTRLEIK	–
–	binds	H2.3 (antibody, V domains shown) VH: QVQLQQSGPGLVKPSQTLSLTCAISGDSVSSHSASWNWIRQSPSRGLEWLGRTYYRGKWKTDYAVSVKSRIIINPDTSKNQFSLQLDSVTPEDTAVYFCTRATRGASDYWGQGTLVTVSS VL: not shown	–
–	binds	H2.4 (antibody, V domains shown) VH: QVQLQQSGPGLVKPSQTLSLTCAISGDSVSSHSASWNWIRQSPSRGLEWLGRTYYRSKWHNDYAASVKGRIIINPDTSKNQFSLQLDSVTPEDTAVYFCTRATRGASDYWGQGTLVTVSS VL: not shown	–
